Experimental findings from patent US20200317755A1 (HUMABS BIOMED, published 2020) are described below.

In experiment [1] the target is T1, ZIKV E protein (Zika virus, UniProt Q32ZE1 291-694).
T1 construct: domain: envelope protein (E protein); also called Zika virus envelope protein; recombinant ZIKV E protein
Put plainly: ELISA. (In general: In an ELISA, binding on a coated surface is turned into a signal by an enzyme label.)

Experiment [2] has as its target T2, ZIKV EDIII (Zika virus, UniProt A0A024B7W1 599-693).
T2 construct: also called domain III of ZIKV E protein; DIII ZI
Put plainly: ELISA.

Experiment [3] has as its target T1, ZIKV E protein. Put plainly: ELISA. The source holds these as a separate data set.
Experiment [4] addresses T3, DENV1 E protein (Dengue virus serotype 1).
T3 construct: also called E protein of dengue virus serotype 1
Put plainly: ELISA.

For experiment [5], the target named is E protein of ZIKV strain H/PF/2013 (on infectious virus) (Zika virus). Put plainly: cell-based or functional assay.
The next experiment has as its target T4, DENV1 (Dengue virus 1).
T4 chain: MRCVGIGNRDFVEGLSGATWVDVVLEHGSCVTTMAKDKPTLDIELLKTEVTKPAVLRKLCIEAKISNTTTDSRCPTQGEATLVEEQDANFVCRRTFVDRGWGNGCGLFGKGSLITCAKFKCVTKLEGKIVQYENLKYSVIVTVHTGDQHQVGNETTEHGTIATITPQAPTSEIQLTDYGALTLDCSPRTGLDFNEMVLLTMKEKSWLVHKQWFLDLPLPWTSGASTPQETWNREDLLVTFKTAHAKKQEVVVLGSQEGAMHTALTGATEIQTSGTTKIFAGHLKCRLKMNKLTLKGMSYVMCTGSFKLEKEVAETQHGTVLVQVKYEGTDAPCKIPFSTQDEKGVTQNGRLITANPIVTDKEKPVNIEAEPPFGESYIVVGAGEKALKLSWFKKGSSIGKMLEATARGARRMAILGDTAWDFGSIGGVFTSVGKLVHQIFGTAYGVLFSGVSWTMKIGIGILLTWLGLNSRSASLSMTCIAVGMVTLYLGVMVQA
Put plainly: cell-based or functional assay.

Experiment [6] deals with T1, ZIKV E protein. Put plainly: ELISA. This is another data set of the same source.
Another experiment concerns the target T5, DENV3 VLP (Dengue virus 3).
T5 construct: virus-like particle; also called DENV3 virus-like particle
Put plainly: ELISA.

The target of the next experiment is DENV2 E protein (Dengue virus serotype 2). Put plainly: ELISA.
For experiment [7], the target named is T3, DENV1 E protein. Kind of experiment: ELISA. This is another data set of the same source.
In the next experiment the target is T6, DENV2 VLP (Dengue virus 2).
T6 construct: virus-like particle; also called DENV2 virus-like particle
Put plainly: ELISA.

A further experiment addresses T7, DENV1 VLP (Dengue virus 1).
T7 construct: virus-like particle; also called DENV1 virus-like particle
Put plainly: ELISA.

For the next experiment, the target named is DENV4 E protein (Dengue virus serotype 4). Kind of experiment: ELISA.
Experiment [8] has as its target T2, ZIKV EDIII. Kind of experiment: ELISA. The source holds these as a separate data set.
The next experiment concerns the target DENV3 E protein (Dengue virus serotype 3). Put plainly: ELISA.
For another experiment, the target named is T8, DENV4 VLP (Dengue virus 4).
T8 construct: virus-like particle; also called DENV4 virus-like particle
Put plainly: ELISA.

Read-outs that look alike come from different tables or passages of the source.

B1: ZKA230-Fab (Fab, V domains shown)
VH: QVQLQESGPGLVKPSETLSLTCAVSGGSISSDYWSWIRQPPGKGLEWIGYIYYSGSTNYNPSLKSRVTISVDTSKNHFSLKLNSVTAADTAVYYCARRRKYDSLWGSFAFDIWGQGTMVTVSS
VL: QSVLTQPPSASGTPGQRVTISCSGSSSNIGGNYVYWYQQLPGTAPKLLICINDHRPSGVPDRFSGSKSGTSASLAISGLQSEDEADYYCATWDDSLGGLVFGGGTKLTVL
notes: also called Fab of ZKA230
Consider B1, for which the binding result in the experiment with ZIKV E protein [1] and with ZIKV EDIII [2] was “no binding (tested: 10 nM)” in each case.

B2: ZKA78 (antibody, V domains shown)
VH: EVQLAESGGGLVQPGGSLTLSCSGSGFTFSNYAMVWARQAPGKGLEYVSGIGRNGDSIYYTDSVKGRFTISRDNSKSMVYLQMSSLRTEDTAVYYCVKDLAIPESYRIEADYWGQGTLVIVSA
VL: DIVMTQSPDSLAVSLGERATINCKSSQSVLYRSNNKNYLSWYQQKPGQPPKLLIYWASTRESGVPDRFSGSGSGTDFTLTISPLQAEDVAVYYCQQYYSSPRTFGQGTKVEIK
notes: also called cross-reactive antibody ZKA78
By EC50 is commonly meant the concentration that produces a half-maximal response. As for B2, the EC50 with ZIKV E protein [3] stood at 2.76 µg/mL; with DENV1 E protein [4], 1.41 µg/mL; with ZIKV E protein [6], 2.76 µg/mL; with DENV3 VLP, 0.131 µg/mL; in the experiment with DENV2 E protein, 0.982 µg/mL; in the experiment with DENV1 E protein [7], 1.41 µg/mL. Moreover, the EC50 came out at 0.083 µg/mL with DENV2 VLP; 0.158 µg/mL with DENV1 VLP; 0.385 µg/mL with DENV4 E protein; 0.033 µg/mL with DENV3 E protein; 0.136 µg/mL in the experiment with DENV4 VLP. Moreover, the “IC50, ZIKV neut” value in experiment [5] was 2860 ng/mL. For the same molecule, the “IC50, DENV1 neut” value with DENV1 stood at 266 ng/mL. Also, the binding result in the experiment with ZIKV EDIII [8] is recorded as “no binding”.
